Target: CD122-Fc (UniProt P14784)
Experiment: SPR, construct immobilised, CD122-Fc flowed, after protease cleavage

Chain of CD122-Fc (P14784 27-239 limits assumed): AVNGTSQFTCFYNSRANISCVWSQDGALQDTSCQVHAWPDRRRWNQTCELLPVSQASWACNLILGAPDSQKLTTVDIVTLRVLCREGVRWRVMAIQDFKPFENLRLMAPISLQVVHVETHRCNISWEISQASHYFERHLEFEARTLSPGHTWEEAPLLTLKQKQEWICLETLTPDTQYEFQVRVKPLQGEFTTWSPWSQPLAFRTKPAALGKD

B1: AK168 after protease cleavage (Fc fusion, from a related filing)
chain: LYHPSGPAPTSSSTKKTQLQLEHLLLDLQMILNGINNYKNPKLTAMLTAKFAMPKKATELKHLQCLEEALKPLEEVLNLAQSKNFHLRPRDLISNINVIVLELKGSETTFMCEYADETATIVEFLNRWITFAQSIISTLT
B1 showed a Kd of 175 nM.

From patent US20230159603A1
